Source: US20030054493A1

Key:
[1] = target: Crotalus durissus terrificus (C.d.t.) venom; test: ELISA, venom-coated wells; dilution 1:25
[2] = target: Crotalus durissus terrificus (C.d.t.) venom; test: ELISA, venom-coated wells; dilution 1:125
[3] = target: Crotalus durissus terrificus (C.d.t.) venom; test: ELISA, venom-coated wells; dilution 1:625
[4] = target: Crotalus durissus terrificus (C.d.t.) venom; test: ELISA, venom-coated wells; dilution 1:3125
[5] = target: Crotalus durissus terrificus (C.d.t.) venom; test: ELISA, venom-coated wells; dilution 1:62,500
[6] = target: Crotalus durissus terrificus (C.d.t.) venom; test: ELISA, venom-coated wells; dilution 1:312,500
[7] = target: Crotalus durissus terrificus (C.d.t.) venom; test: ELISA, venom-coated wells (5 µg/ml); undiluted
[8] = target: Crotalus durissus terrificus (C.d.t.) venom; test: ELISA, venom-coated wells; dilution printed 1.5
[9] = target: Crotalus durissus terrificus (C.d.t.) venom; test: ELISA, venom-coated wells (5 µg/ml); dilution 1:5
[10] = target: Crotalus durissus terrificus (C.d.t.) venom; test: ELISA, venom-coated wells (5 µg/ml); dilution 1:25
[11] = target: Crotalus durissus terrificus (C.d.t.) venom; test: ELISA, venom-coated wells (5 µg/ml); dilution 1:125
[12] = target: Crotalus durissus terrificus (C.d.t.) venom; test: ELISA, venom-coated wells (5 µg/ml); dilution 1:625
[13] = target: Crotalus durissus terrificus (C.d.t.) venom; test: ELISA, venom-coated wells (5 µg/ml); dilution 1:3125

preimmune IgY (antibody)
ELISA absorbance [1]: 0.016 absorbance
ELISA absorbance [2]: < 0 absorbance
ELISA absorbance [3]: < 0 absorbance
ELISA absorbance [4]: < 0 absorbance
ELISA absorbance (absorbance (412 nm filter)) [5]: 0.001
ELISA absorbance (absorbance (412 nm filter)) [6]: 0.01
ELISA absorbance [7]: 0.003 absorbance
ELISA absorbance [8]: < 0 absorbance
ELISA absorbance [9]: < 0 absorbance
ELISA absorbance [10]: 0 absorbance
ELISA absorbance [11]: 0.003 absorbance
ELISA absorbance [12]: 0 absorbance
ELISA absorbance [13]: 0.002 absorbance
